Here are results for 19 sequences from the DeepSol protein solubility set.

A short description of the series: soluble on expression in E. coli; label from the status in PepcDB or PDB records.
As to “MKIKAIEPTPSPNTMKVILNEVLPSGARNNYTNENKEQAPMQVQEILKIEGIKGVYHVADFLAVERNAKYDWKVLLQQVRAVFGEEVLEESEEQQLAHFGEVKVFVQMFFTIPMQVKLTDGTTEERVGLPDRFKESIMKVQMSAPNVVKERKWVEQSTRYGNFEEIGKEVVEEIVAAYSEERVNETVKELLNQAGAVEVTIQKREPYKVTEEMMKDSDWKNRFAALEQMDPTEEDIPVLKMALDDEKVSIRRLATAYLGMVKGDEVLPLLYKALLDRSVSVRRTAGDCLSDVGDPAAMFVMIKSLKDPSKLVRWRAAMFLFELGDESAIPALKAAQDDPEFEVAMQARLALERIEGGEEAKGSVWKQMTESRKGE”, the “soluble on expression in E. coli” value is on record as “not soluble”.
Take “AHHHHHHGSKEIVERVKTKTKIPVYERSVENVLSAVLASDDIWRIVDLSEEPLPLVVAILESLNELGYVTFEDGVKLTEKGEELVAEYGIGKRYDFTCPHCQGKTVDLQAFADLLEQFREIVKDRPEPLHEFDQAYVTPETTVARVILMHTRGDLENKDIFVLGDDDLTSIALMLSGLPKRIAVLDIDERLTKFIEKAANEIGYEDIEIFTFDLRKPLPDYALHKFDTFITDPPETLEAIRAFVGRGIATLKGPRCAGYFGITRRESSLDKWREIQKLLLNEFNVVITDIIRNFNEYVNWGYAEETRAWKLIPIKKLPEYNWYKSYMFRIETLEGSRGYEDEIPEEDIYNDEESSTT”: the “soluble on expression in E. coli” value is listed as “soluble”.
Take “MSLDWNRLKPTINQKVSAELNRPFAIRGDLGVVWERQKQETGWRSWVPWPHVHAEDIILGNPPDIPEVTMVHLPRVEATLAPLALLTKTVWLPWIKLEKPDARLIRLSEKNNNWTFNLANDDNKDANAKPSAWSFRLDNILFDQGRIAIDDKVSKADLEIFVDPLGKPLPFSEVTGSKGKADKEKVGDYVFGLKAQGRYNGEPLTGTGKIGGMLALRGEGTPFPVQADFRSGNTRVAFDGVVNDPMKMGGVDLRLKFSGDSLGDLYELTGVLLPDTPPFETDGRLVAKIDTEKSSVFDYRGFNGRIGDSDIHGSLVYTTGKPRPKLEGDVESRQLRLADLGPLIGVDSGKGAEKSKRSEQKKGEKSVQPAGKVLPYDRFETDKWDVMDADVRFKGRRIEHGSSLPISDLSTHIILKNADLRLQPLKFGIAGGSIAANIHLEGDKKPMQGRADIQARRLKLKELMPDVELMQKTLGEMNGDAELRGSGNSVAALLGNSNGNLKLLMNDGLVSRNLMEIVGLNVGNYIVGAIFGDDEVRVNCAAANLNIANGVARPQIFAFDTENALINVTGTASFASEQLDLTIDPESKGIRIITLRSPLYVRGTFKNPQAGVKAGPLIARGAVAAALATLVTPAAALLALISPSEGEANQCRTILSQMKKEGHHHHHH”: the “soluble on expression in E. coli” value is “soluble”.
On to “ELRAKERKIIRDKEDGLNPQLADRMTLNELYDRFIEQKYDLKPSTKVNYLYMYNHFVRPTFGKRLIGKIKYSDVKKFYYRIILDEEMKANTLDSIHTQLHPAFQMAVRDGLLRQNPTDGLMAEIKKSHIWEDNPRHALTIPQQKAFMDYLKAHREYQGWVPIITVLLGTGMRIGECIGLRWDDLDFEKRIVSVNHTFIYRPDENRKSVKHISTPKTISGRRTIPMIDEVFNAFLDEYEIQKCIGFSSEEIDGYSNFVFVTATGTVYLPNAVNRAIERARVAYNKDEIEIAEKEDREPLIIPHF”, for which the “soluble on expression in E. coli” value is “not soluble”.
For “MIKSALLVLEDGTQFHGRAIGATGSAVGEVVFNTSMTGYQEILTDPSYSRQIVTLTYPHIGNVGTNDADEESSQVHAQGLVIRDLPLIASNFRNTEDLSSYLKRHNIVAIADIDTRKLTRLLREKGAQNGCIIAGDNPDAALALEKARAFPGLNGMDLAKEVTTAEAYSWTQGSWTLTGGLPEAKKEDELPFHVVAYDFGAKRNILRMLVDRGCRLTIVPAQTSAEDVLKMNPDGIFLSNGPGDPAPDDYAITAIQKFLETDIPVFGICLGHQLLALASGAKTVKMKFGHHGGNHPVKDVEKNVVMITAQNHGFAVDEATLPANLRVTHKSLFDGTLQGIHRTDKPAFSFQGHPEASPGPHDAAPLFDHFIELIEQYRKTAK”, the “soluble on expression in E. coli” value was “soluble”.
Then “MSLNRGIGVVTLSTLLASPSALARENPPAEDEPAALEALVVTGEKRERSLKDTASSVSLTSARDIDRKQTGNASVAEVINGSPNVVYTDSVGAPIIRGQDTQGPNNGQNVFWGGTVPRATINLDGHYLNYNEMFFGATSVWDVDSIEVFRGPQTTSQGANAIAGAIIVNTKDPTFSPEAAYQAEIGSYHSRRSSIAVSGPLAQDFAGRLAVDYAGRDTFIDYDNPKFQDSGTDQDFRALNARAKLLWLPSGIPGLESKFTFSHNDNNRPTQEAATRPFDKLDHRSTTMPSWEQDTNTSILDVAYDLDNGIRLFNQAQYSLSSVHRTTGAGGEGDADIRQKNASNESRISFGEQEDRISGMGGVYYARTRTDETLHLRGLSAFDDTKKNLGVFGELNYRLSDRWTLTTGLRYQEDRIERSGNSVLAPRPLDYQKTFSAFLPKVSLAFAATPDWTVGGLVSRGYNPGGVSLNLTTRNWAYFKEETIWNYELFTRASLLDGRLLLNGNLFFMDFKDAQYNIPVVVSPGVAQSYTINAEKAHAYGMELDLDYRLRDDLRLKASAGVLRTRIDEMSGNTGYEHNEFARSPGYTLSFGPSWDVTERLNLNAQVRYLDGYYSDTANTKAYSIKAYTLTDARASYRFNDQVQLYGYVKNVFDDRSPTYMQENRGIGGIEASMTQPRTLGIGIKGTFEGHHHHHH”, with “not soluble”; and “GPGSYDSNLYVASLPEWFTDADLHELFKRFGPIVSAKVMCHKGTHHCKGYGFVLFQRTDDAAVARSEMIGHVVGGNKIQVRRARSAASAPLTEAASAVSGTFTESSGSTRTSSSNVTPINYSVHVVPSQQPSFNPLYPATTALTPTYVLTNPSAPVQNATHTQPAMLVAVPNGRTMVQGAGDVMYMVLASSAQQMQSTSAIY”, with “not soluble”.
Turning to “KEYFSVWMEDIIYFENSGRNVKIMTIDGTDLFVGNIKDIAKEVLPYGFIQISQSIIVNYNFVSKYSREEIILINKEKIAIPKNKRNGVKEQFL”, the “soluble on expression in E. coli” value is given as “not soluble”.
In the case of “MSKLPEIGTKISLTDKAYEIIKDAIMTNIFKPGELLIEEKLAEQLAISRTPLRAALRKLAYDHLVEINSSRNVIVANIGQKDVEEITVVREVLEPLAVKELENNIGEDELKKLEEILCRQKKAVLEDNYEELIKMEYEFHVAIGELTHNKWLHGMLKDINTIVQRYLILSGSLNKYKEVAIKEHEVIISEIRQGNYDKAVESMKCHISNVSSRMLK” it was “not soluble”; in that of “MATTLPVQRHPRSLFPEFSELFAAFPSFAGLRPTFDTRLMRLEDEMKEGRYEVRAELPGVDPDKDVDIMVRDGQLTIKAERTEQKDFDGRSEFAYGSFVRTVSLPVGADEDDIKATYDKGILTVSVAVSEGKPTEKHIQIRSTN”, “soluble”; in that of “MSLKTKTFKMQLQFLSEQNLEINNNNQLLNQEKITYLQKIEQLKCKLEYQERMIKDSEKIREESFASAKAALFDLGKDLSKQLIEIHKMENNTTRELAEKNIETASQKFNTELERLITMVGALNKDIEQSKGTVDLIKQSLLSPIGAGLLSEITLENILKSSGLRPNLDFIMQYSLTTSDSVKLRPDAIIFLPSGNLMVIDSKASKFLVDSQDNSVHLSKTMNYHLKTLTNKDYAENILTNLNKKTQNFNNVITLMFLPTEQAVEKVIAANPEFLQKAWGCNIFPVGPAGLMNMLSFAKFQITDNRRSENYKVIIEEVRKLLSSIGTIADYSKKIGYNLQNMVTNYDKFAASFNRNVMSRVKSIQKLGIDSGNKIIPATLERYQIVSAKSEIIEVDVENQHKEGHHHHHH”, “not soluble”.
In the case of “TDAFFFAGFLPNAAAARKTRLETLRGVPGTLVFYESPKRLAASLRDMAEVLGGERPAALCRELTKKFEETRRDTLAGLAEALAEAPVKGEVVLLVDRARSG”, the “soluble on expression in E. coli” value is recorded as “not soluble”.
Then “MYFMEILTCIKQVPGTTSVEVDETTGVLKRDGVDSKMNPYDLYALETALRIKEDKKANLKVLSMGPPQAKKVIEESFMMGADEGALISDRRFGGADVLATSYTISQGIKKMGKVDLIICGKQTTDGDTAQVGPEVAEFLDIPHVTNVTKLIEVKDESIVVEIDMPNDLQVCEIEYPCLITVEKDIFQPRLPSFKLKLNTKDREIPVYSLDDFEDKNENNYGLNGSPTQVVRIFPPKPNTDKNIVRGNADELSFALVNKLEELKLV”, with “not soluble”; and “MEIRLFSGSAHPDLARRVAEALGVPLGKALVDRFPDGEVRVRLLESVRGEDVYLIQPTCPPVNDHLMELLLLADAARRSSAGRINAVIPYFGYARQDKQTEGREPISARLVAGLLERVGVERVIAIDLHAPQIQGFFDIPVDHLSAVRLFARYLREKGYVENAVVVSPDAGRAEEARRLAERLGLPLAMLAKRRLGPRETSVTYVIGDVEGKRPILVDDIVSTGGTIRRGVEALLQAGALPEVVVMATHAVLVGGAKENLAHPAVREVVFTDTIPLKDGGYTVLSTAELLAQAIRHVHTNQSVSALI”, with “soluble”.
Turning to “MSLASAIRICTKFSRLSLNSRSTSKSLIHCMSNVTADVPPVSETKSKFLKAYKRPIPSIYNTVLQELIVQQHLMRYKKTYRYDPVFALGFVTVYDQLMEGYPSDQDRDAIFKAYIEALNEDPKQYRIDAQKMEEWARSQTSASLVDFSSKEGDIEAVLKDIAGRAGSKEGFSYSRFFAVGLFRLLELASATDPTVLDKLCASLNINKKSVDRDLDVYRNLLSKLVQANELLKEYVEREKKKQEERAQSQKANETISKCLGDTLYNPSFLVERKSEGHHHHHH”, the “soluble on expression in E. coli” value is listed as “soluble”.
In the case of “MTSSDLPVMLFAAGFGTRMGDLTRTRPKPLIEVAGRPLVDHTLDLARAVSPPRIVANLHYLAPLLAAHLAPQGVLLSHEQPDILDTGGGLRQALPLLAAETVFTANSDAIWSGPNPFALLAEAWEPARMDALLMCVPVGQAIGHAGHGDFSRDAQGRIERGPGLIYGGVQIVKTGGLGDFDMPAFSLNLLWNRIGAAGRLFALEYPGRWCDVGHPGGIALAEEMLRDVLEHHHHHH” it was “soluble”; in that of “MKVLTVVIPCYNSAEYMDRAIESLLIGDEELEILIVNDGSMDNTSIIADEYEKKYPNTIRVIHKENGGHGDAINTGLKHSKGVYFKVLDSDDWFDKASLKKVLEVLKNMIKDSKSLDMLISNYVYENFSINKSRSINYKGAMPKEKIFTWDSLGHLKSSQNILMHSVIYRTELLRECNLDLPKHTFYVDNIFVYKPLPYVKTMYYLDVDLYRYFIGREDQSVNEKVMIKRIDQQIKVTKILIDCYNPMLLNCKKLRKYMVKYLVMMMTVSTVLLIKDNTEQSLNKKRELWSYLHSKNRKLYFEVNKSFLGLLIQIKGFVGRKIILLGYSLSRKVFGFNLEHHHHHH”, “not soluble”; in that of “MKHLEIELKTLLKKDEYNRLKDQFTGVTPVLQTNYYIDTPDFELREKKVAMRIRTFEDWAELTLKVPQSVGNMEYNQKLQLKDAENYLSKEELPQGLVLDELAKHGIQSKNWQVLGCLTTLRYEMKTAIGLMALDQSRYFDITDYELELEVENHEQGKQDFRQFLEKNQISYQKAPSKLVRFVKSMKNS”, “not soluble”.
Turning to “MGPAQIWRLKFSNDKLTWEQECTFERSQYYDSIICACVYRFYHGAPPVVLFGTYSGRILQYELPPPTKFVRKSMKDVPKCGKPINLLINHGIYFIRQTGFNEIASITPFGLYILRENFHASKRLGKFGQFWLNRLQNRLLVKNPGSIDDFSAAEIRRLSIDSAQEQMRPRIGSTVSQLTFRYSDDDTLLLEKGGEKRRQTLGARDFQVSPRFYSRKIGKKIRFFLKFFREKLAGIENFRQIGKLAKMKISGKPANCQNFLPISNRGKLRKNFFFSENNDKF”, the “soluble on expression in E. coli” value is on record as “not soluble”.
